Where a chain is given by its changes, count along the chain named. In names and notes the source's numbering stands.
T1: EsCas13d, nuclease-dead (Eubacterium siraeum, UniProt B0MS50, R295A;H300A;R849A;H854A)
T1 sequence: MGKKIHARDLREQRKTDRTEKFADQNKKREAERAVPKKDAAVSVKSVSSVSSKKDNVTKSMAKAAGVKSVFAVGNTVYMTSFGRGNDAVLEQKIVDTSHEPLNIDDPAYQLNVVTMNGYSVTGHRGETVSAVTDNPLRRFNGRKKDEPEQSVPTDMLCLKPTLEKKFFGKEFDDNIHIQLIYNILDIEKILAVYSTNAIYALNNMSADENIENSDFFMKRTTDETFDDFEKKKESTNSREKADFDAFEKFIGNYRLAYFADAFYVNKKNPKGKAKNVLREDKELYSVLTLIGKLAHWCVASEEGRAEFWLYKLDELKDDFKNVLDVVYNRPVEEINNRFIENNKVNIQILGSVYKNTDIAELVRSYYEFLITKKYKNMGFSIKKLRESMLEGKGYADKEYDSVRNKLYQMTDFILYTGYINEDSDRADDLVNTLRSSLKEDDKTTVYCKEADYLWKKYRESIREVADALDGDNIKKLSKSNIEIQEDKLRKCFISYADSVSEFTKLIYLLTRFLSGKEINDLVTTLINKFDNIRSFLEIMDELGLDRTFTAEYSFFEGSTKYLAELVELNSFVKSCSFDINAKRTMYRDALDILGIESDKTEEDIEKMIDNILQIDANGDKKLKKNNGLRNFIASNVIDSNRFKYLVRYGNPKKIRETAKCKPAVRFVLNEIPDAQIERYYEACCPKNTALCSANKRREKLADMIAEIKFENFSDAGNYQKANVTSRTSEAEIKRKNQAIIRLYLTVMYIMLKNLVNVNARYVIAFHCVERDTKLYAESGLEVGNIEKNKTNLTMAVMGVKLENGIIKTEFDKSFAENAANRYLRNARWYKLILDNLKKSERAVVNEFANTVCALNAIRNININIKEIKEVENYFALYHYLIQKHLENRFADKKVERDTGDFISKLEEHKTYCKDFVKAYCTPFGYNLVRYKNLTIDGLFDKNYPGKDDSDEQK

B1: target 1 insC 3' of 13,insU 3' of 9 (mixed)
RNA 1: CACCCGUGCAAAAAUGCAGGGGUCUAAAACUGAGCGGAUAACCUCUCUAUGG
RNA 2: GGGAAUGGAUCCACAUCUACGAAUUCGUACCAUAGAGAGCGUUAUUCCGCUCACCGAGAUCGGAAGAGCACACGU
B2: target 1 insU 3' of 20,insC 3' of 8 (mixed)
RNA 1: B1 RNA 1
RNA 2: B1 RNA 2 with A34U, G35A, A36G, G37A, A38G, G39A, C40G, U46C
B3: target 1 U8G,U11G (mixed)
RNA 1: B1 RNA 1
RNA 2: GGGAAUGGAUCCACAUCUACGAAUUCGUACCAUAGAGAGGGUAGCCGCUCACCGAGAUCGGAAGAGCACACGU
B4: target 1 insA 3' of 17,insA 3' of 12 (mixed)
RNA 1: B1 RNA 1
RNA 2: B1 RNA 2 with G37A, A38G, G39A, C40G, U42A, A44U, U45A
B5: target 1 C2G,U19G (mixed)
RNA 1: B1 RNA 1
RNA 2: B3 RNA 2 with U33G, G41U, G44U, C50G
B6: target 1 insG 3' of 14,insC 3' of 8 (mixed)
RNA 1: B1 RNA 1
RNA 2: B1 RNA 2 with C40G, U46C
B7: target 1 G5C,C6U (mixed)
RNA 1: B1 RNA 1
RNA 2: B3 RNA 2 with G41U, G44U, C46U, G47C
B8: target 1 A9G,A18C (mixed)
RNA 1: B1 RNA 1
RNA 2: B3 RNA 2 with A34C, G41U, A43G, G44U
B9: target 1 G15A,U19A (mixed)
RNA 1: B1 RNA 1
RNA 2: B3 RNA 2 with U33A, G37A, G41U, G44U
B10: target 1 C4A,U11A (mixed)
RNA 1: B1 RNA 1
RNA 2: B3 RNA 2 with G41A, G44U, C48A
B11: target 1 insU 3' of 18,insC 3' of 13 (mixed)
RNA 1: B1 RNA 1
RNA 2: GGGAAUGGAUCCACAUCUACGAAUUCGUACCAUAUGAGAGCGUUAUCCGCUCACCGAGAUCGGAAGAGCACACGU
B12: target 1 C4A,G5A (mixed)
RNA 1: B1 RNA 1
RNA 2: B3 RNA 2 with G41U, G44U, G47A, C48A
B13: target 1 insG 3' of 14,insG 3' of 6 (mixed)
RNA 1: B1 RNA 1
RNA 2: B1 RNA 2 with C40G, U46C, C48G
B14: target 1 insG 3' of 4,insG 3' of 2 (mixed)
RNA 1: B1 RNA 1
RNA 2: GGGAAUGGAUCCACAUCUACGAAUUCGUACCAUAGAGAGGUUAUCCGCGUCGACCGAGAUCGGAAGAGCACACGU
B15: target 1 insU 3' of 9,insA 3' of 8 (mixed)
RNA 1: B1 RNA 1
RNA 2: B1 RNA 2 with C40G, G41U, U43A, A44U, U46A
B16: target 1 insU 3' of 14,insG 3' of 8 (mixed)
RNA 1: B1 RNA 1
RNA 2: B1 RNA 2 with G39U, C40G, U46G
B17: target 1 C2G,U11A (mixed)
RNA 1: B1 RNA 1
RNA 2: B3 RNA 2 with G41A, G44U, C50G
B18: target 1 U19C,C21U (mixed)
RNA 1: B1 RNA 1
RNA 2: B3 RNA 2 with C31U, U33C, G41U, G44U
B19: target 1 insC 3' of 16,insC 3' of 16 (mixed)
RNA 1: B1 RNA 1
RNA 2: B1 RNA 2 with G37C, A38C, C40A, U42G, A44U, U45A
B20: target 1 C4A,C22U (mixed)
RNA 1: B1 RNA 1
RNA 2: B3 RNA 2 with C30U, G41U, G44U, C48A
B21: target 1 G12U,U19G (mixed)
RNA 1: B1 RNA 1
RNA 2: B3 RNA 2 with U33G, G40U, G41U, G44U
B22: target 1 insA 3' of 22,insC 3' of 14 (mixed)
RNA 1: B1 RNA 1
RNA 2: B11 RNA 2 with C31A, A32C, U33A, A34U, U35A, G40C, C41G
B23: target 1 insC 3' of 5,insA 3' of 2 (mixed)
RNA 1: B1 RNA 1
RNA 2: B14 RNA 2 with G49C, G52A
B24: target 1 C6G,C7U (mixed)
RNA 1: B1 RNA 1
RNA 2: B3 RNA 2 with G41U, G44U, C45U, C46G
B25: target 1 G5U,C6A (mixed)
RNA 1: B1 RNA 1
RNA 2: B3 RNA 2 with G41U, G44U, C46A, G47U
B26: target 1 C4A,U10C (mixed)
RNA 1: B1 RNA 1
RNA 2: B3 RNA 2 with G41U, U42C, G44U, C48A
B27: target 1 insU 3' of 20,insG 3' of 14 (mixed)
RNA 1: B1 RNA 1
RNA 2: B11 RNA 2 with A34U, U35A, C41G
B28: target 1 U8A,A9C (mixed)
RNA 1: B1 RNA 1
RNA 2: B3 RNA 2 with G41U, A43C, G44A
B29: target 1 insG 3' of 16,insA 3' of 15 (mixed)
RNA 1: B1 RNA 1
RNA 2: B11 RNA 2 with U35G, G36A, A37G, G40A, C41G
B30: target 1 insG 3' of 18,insG 3' of 8 (mixed)
RNA 1: B1 RNA 1
RNA 2: B1 RNA 2 with A36G, G37A, A38G, G39A, C40G, U46G

These binders were tested against T1, EsCas13d, nuclease-dead (assay: crRNA (strand 1, pre-loaded); Mg2+; 40 mM Tris-HCl pH 7.5, 150 mM NaCl, 6 mM MgCl2, 1 mM DTT, 0.1% Tween-20, 0.2 mg/ml BSA; 25 C; 10 min per concentration, then washed). Conditions: tags: His6-TwinStrep-SUMO cleaved; N-terminal SNAP kept (SNAP-Surface 488); label: 3' end held by stalled T7 RNA polymerase.

Point of comparison: B5, Kd 38 ± 4 nM. Against it:
- B1 — 3.8-fold lower, 10 ± 0.5 nM
- B2 — 2-fold lower, 19.1 ± 1 nM
- B3 — 2-fold lower, 18.9 ± 0.7 nM
- B4 — within error, 42 ± 8 nM
- B6 — within error, 41 ± 5 nM
- B7 — 3.3-fold lower, 11.6 ± 0.4 nM
- B8 — 1.7-fold higher, 64 ± 7 nM
- B9 — within error, 60 ± 19 nM
- B10 — 1.6-fold lower, 23.9 ± 1.8 nM
- B11 — within error, 49 ± 7 nM
- B12 — within error, 44 ± 7 nM
- B13 — 3.6-fold lower, 10.7 ± 0.9 nM
- B14 — 8.1-fold lower, 4.72 ± 0.29 nM
- B15 — 3.9-fold lower, 9.8 ± 0.4 nM
- B16 — within error, 38.1 ± 2.5 nM
- B17 — 2.8-fold lower, 13.6 ± 1.1 nM
- B18 — 6.4-fold lower, 5.98 ± 0.2 nM
- B19 — 1.9-fold higher, 72 ± 22 nM
- B20 — 4.1-fold lower, 9.2 ± 1 nM
- B21 — within error, 35 ± 5 nM
- B22 — within error, 36 ± 6 nM
- B23 — 4.8-fold lower, 7.87 ± 0.33 nM
- B24 — 4.7-fold lower, 8.06 ± 0.32 nM
- B25 — 1.6-fold lower, 24.3 ± 1.6 nM
- B26 — 6.9-fold lower, 5.53 ± 0.31 nM
- B27 — 2-fold lower, 18.9 ± 0.9 nM
- B28 — 4.3-fold lower, 8.9 ± 0.4 nM
- B29 — 2.2-fold lower, 17.5 ± 0.9 nM
- B30 — within 1.5-fold, 50 ± 4 nM
